{"source": "patent US20140087995A1", "about": "(published 2014)", "binders": {"B1": {"name": "N^ε1-[(4S)-4-carboxy-4-[[(4S)-4-carboxy-4-(19-carboxynonadecanoylamino)butanoyl]amino]butanoyl]-[Glu14,Arg17,Pro21,Pro27,Arg34,Glu35]-h-amylin (peptide)", "peptide": "K([γGlu-γGlu-C20 diacid])CNTATCATQRLAEFLRHSSPNFGAIPSSTNVGRETY-NH2", "modifications": "disulfide 2-7; N-terminus assumed", "SMILES": "CC[C@H](C)[C@H](NC(=O)[C@H](C)NC(=O)CNC(=O)[C@H](Cc1ccccc1)NC(=O)[C@H](CC(N)=O)NC(=O)[C@@H]1CCCN1C(=O)[C@H](CO)NC(=O)[C@H](CO)NC(=O)[C@H](Cc1c[nH]cn1)NC(=O)[C@H](CCCNC(=N)N)NC(=O)[C@H](CC(C)C)NC(=O)[C@H](Cc1ccccc1)NC(=O)[C@H](CCC(=O)O)NC(=O)[C@H](C)NC(=O)[C@H](CC(C)C)NC(=O)[C@H](CCCNC(=N)N)NC(=O)[C@H](CCC(N)=O)NC(=O)[C@@H](NC(=O)[C@H](C)NC(=O)[C@@H]1CSSC[C@H](NC(=O)[C@@H](N)CCCCNC(=O)CC[C@H](NC(=O)CC[C@H](NC(=O)CCCCCCCCCCCCCCCCCCC(=O)O)C(=O)O)C(=O)O)C(=O)N[C@@H](CC(N)=O)C(=O)N[C@@H]([C@@H](C)O)C(=O)N[C@@H](C)C(=O)N[C@@H]([C@@H](C)O)C(=O)N1)[C@@H](C)O)C(=O)N1CCC[C@H]1C(=O)N[C@@H](CO)C(=O)N[C@@H](CO)C(=O)N[C@H](C(=O)N[C@@H](CC(N)=O)C(=O)N[C@H](C(=O)NCC(=O)N[C@@H](CCCNC(=N)N)C(=O)N[C@@H](CCC(=O)O)C(=O)N[C@H](C(=O)N[C@@H](Cc1ccc(O)cc1)C(N)=O)[C@@H](C)O)C(C)C)[C@@H](C)O"}, "B2": {"name": "N^ε1-[(4S)-4-carboxy-4-[[(4S)-4-carboxy-4-(19-carboxynonadecanoylamino)butanoyl]amino]butanoyl]-[Glu14,Arg17,Pro21,Pro27,His34,Glu35]-h-amylin (peptide)", "peptide": "K([γGlu-γGlu-C20 diacid])CNTATCATQRLAEFLRHSSPNFGAIPSSTNVGHETY-NH2", "modifications": "disulfide 2-7; N-terminus assumed", "SMILES": "CC[C@H](C)[C@H](NC(=O)[C@H](C)NC(=O)CNC(=O)[C@H](Cc1ccccc1)NC(=O)[C@H](CC(N)=O)NC(=O)[C@@H]1CCCN1C(=O)[C@H](CO)NC(=O)[C@H](CO)NC(=O)[C@H](Cc1c[nH]cn1)NC(=O)[C@H](CCCNC(=N)N)NC(=O)[C@H](CC(C)C)NC(=O)[C@H](Cc1ccccc1)NC(=O)[C@H](CCC(=O)O)NC(=O)[C@H](C)NC(=O)[C@H](CC(C)C)NC(=O)[C@H](CCCNC(=N)N)NC(=O)[C@H](CCC(N)=O)NC(=O)[C@@H](NC(=O)[C@H](C)NC(=O)[C@@H]1CSSC[C@H](NC(=O)[C@@H](N)CCCCNC(=O)CC[C@H](NC(=O)CC[C@H](NC(=O)CCCCCCCCCCCCCCCCCCC(=O)O)C(=O)O)C(=O)O)C(=O)N[C@@H](CC(N)=O)C(=O)N[C@@H]([C@@H](C)O)C(=O)N[C@@H](C)C(=O)N[C@@H]([C@@H](C)O)C(=O)N1)[C@@H](C)O)C(=O)N1CCC[C@H]1C(=O)N[C@@H](CO)C(=O)N[C@@H](CO)C(=O)N[C@H](C(=O)N[C@@H](CC(N)=O)C(=O)N[C@H](C(=O)NCC(=O)N[C@@H](Cc1c[nH]cn1)C(=O)N[C@@H](CCC(=O)O)C(=O)N[C@H](C(=O)N[C@@H](Cc1ccc(O)cc1)C(N)=O)[C@@H](C)O)C(C)C)[C@@H](C)O"}, "B3": {"name": "N{Alpha-1}-[(4S)-4-carboxy-4-(19-carboxynonadecanoylamino)butanoyl]-[Glu14,Arg17,Pro21,Pro27,Lys34]-h-amylin (peptide)", "peptide": "{C20 diacid-γGlu}-KCNTATCATQRLAEFLRHSSPNFGAIPSSTNVGKNTY-NH2", "modifications": "disulfide 2-7", "SMILES": "CC[C@H](C)[C@H](NC(=O)[C@H](C)NC(=O)CNC(=O)[C@H](Cc1ccccc1)NC(=O)[C@H](CC(N)=O)NC(=O)[C@@H]1CCCN1C(=O)[C@H](CO)NC(=O)[C@H](CO)NC(=O)[C@H](Cc1c[nH]cn1)NC(=O)[C@H](CCCNC(=N)N)NC(=O)[C@H](CC(C)C)NC(=O)[C@H](Cc1ccccc1)NC(=O)[C@H](CCC(=O)O)NC(=O)[C@H](C)NC(=O)[C@H](CC(C)C)NC(=O)[C@H](CCCNC(=N)N)NC(=O)[C@H](CCC(N)=O)NC(=O)[C@@H](NC(=O)[C@H](C)NC(=O)[C@@H]1CSSC[C@H](NC(=O)[C@H](CCCCN)NC(=O)CC[C@H](NC(=O)CCCCCCCCCCCCCCCCCCC(=O)O)C(=O)O)C(=O)N[C@@H](CC(N)=O)C(=O)N[C@@H]([C@@H](C)O)C(=O)N[C@@H](C)C(=O)N[C@@H]([C@@H](C)O)C(=O)N1)[C@@H](C)O)C(=O)N1CCC[C@H]1C(=O)N[C@@H](CO)C(=O)N[C@@H](CO)C(=O)N[C@H](C(=O)N[C@@H](CC(N)=O)C(=O)N[C@H](C(=O)NCC(=O)N[C@@H](CCCCN)C(=O)N[C@@H](CC(N)=O)C(=O)N[C@H](C(=O)N[C@@H](Cc1ccc(O)cc1)C(N)=O)[C@@H](C)O)C(C)C)[C@@H](C)O", "notes": "also called compound 36"}, "B4": {"name": "N^ε1-[(4S)-4-carboxy-4-[[(4S)-4-carboxy-4-(19-carboxynonadecanoylamino)butanoyl]amino]butanoyl]-[Glu14,Arg17,Pro21,Pro27,Pro34,Glu35]-h-amylin (peptide)", "peptide": "K([γGlu-γGlu-C20 diacid])CNTATCATQRLAEFLRHSSPNFGAIPSSTNVGPETY-NH2", "modifications": "disulfide 2-7; N-terminus assumed", "SMILES": "CC[C@H](C)[C@H](NC(=O)[C@H](C)NC(=O)CNC(=O)[C@H](Cc1ccccc1)NC(=O)[C@H](CC(N)=O)NC(=O)[C@@H]1CCCN1C(=O)[C@H](CO)NC(=O)[C@H](CO)NC(=O)[C@H](Cc1c[nH]cn1)NC(=O)[C@H](CCCNC(=N)N)NC(=O)[C@H](CC(C)C)NC(=O)[C@H](Cc1ccccc1)NC(=O)[C@H](CCC(=O)O)NC(=O)[C@H](C)NC(=O)[C@H](CC(C)C)NC(=O)[C@H](CCCNC(=N)N)NC(=O)[C@H](CCC(N)=O)NC(=O)[C@@H](NC(=O)[C@H](C)NC(=O)[C@@H]1CSSC[C@H](NC(=O)[C@@H](N)CCCCNC(=O)CC[C@H](NC(=O)CC[C@H](NC(=O)CCCCCCCCCCCCCCCCCCC(=O)O)C(=O)O)C(=O)O)C(=O)N[C@@H](CC(N)=O)C(=O)N[C@@H]([C@@H](C)O)C(=O)N[C@@H](C)C(=O)N[C@@H]([C@@H](C)O)C(=O)N1)[C@@H](C)O)C(=O)N1CCC[C@H]1C(=O)N[C@@H](CO)C(=O)N[C@@H](CO)C(=O)N[C@H](C(=O)N[C@@H](CC(N)=O)C(=O)N[C@H](C(=O)NCC(=O)N1CCC[C@H]1C(=O)N[C@@H](CCC(=O)O)C(=O)N[C@H](C(=O)N[C@@H](Cc1ccc(O)cc1)C(N)=O)[C@@H](C)O)C(C)C)[C@@H](C)O"}, "B5": {"name": "N^ε1-[2-[2-[2-[[(4S)-4-carboxy-4-(19-carboxynonadecanoylamino)butanoyl]amino]ethoxy]ethoxy]acetyl]-[Arg17,Pro21,Pro27]-h-amylin (peptide)", "peptide": "K([AEEA-γGlu-C20 diacid])CNTATCATQRLANFLRHSSPNFGAIPSSTNVGSNTY-NH2", "modifications": "disulfide 2-7; N-terminus assumed", "SMILES": "CC[C@H](C)[C@H](NC(=O)[C@H](C)NC(=O)CNC(=O)[C@H](Cc1ccccc1)NC(=O)[C@H](CC(N)=O)NC(=O)[C@@H]1CCCN1C(=O)[C@H](CO)NC(=O)[C@H](CO)NC(=O)[C@H](Cc1c[nH]cn1)NC(=O)[C@H](CCCNC(=N)N)NC(=O)[C@H](CC(C)C)NC(=O)[C@H](Cc1ccccc1)NC(=O)[C@H](CC(N)=O)NC(=O)[C@H](C)NC(=O)[C@H](CC(C)C)NC(=O)[C@H](CCCNC(=N)N)NC(=O)[C@H](CCC(N)=O)NC(=O)[C@@H](NC(=O)[C@H](C)NC(=O)[C@@H]1CSSC[C@H](NC(=O)[C@@H](N)CCCCNC(=O)COCCOCCNC(=O)CC[C@H](NC(=O)CCCCCCCCCCCCCCCCCCC(=O)O)C(=O)O)C(=O)N[C@@H](CC(N)=O)C(=O)N[C@@H]([C@@H](C)O)C(=O)N[C@@H](C)C(=O)N[C@@H]([C@@H](C)O)C(=O)N1)[C@@H](C)O)C(=O)N1CCC[C@H]1C(=O)N[C@@H](CO)C(=O)N[C@@H](CO)C(=O)N[C@H](C(=O)N[C@@H](CC(N)=O)C(=O)N[C@H](C(=O)NCC(=O)N[C@@H](CO)C(=O)N[C@@H](CC(N)=O)C(=O)N[C@H](C(=O)N[C@@H](Cc1ccc(O)cc1)C(N)=O)[C@@H](C)O)C(C)C)[C@@H](C)O", "notes": "also called compound 41"}, "B6": {"name": "N^ε1-[2-[2-[2-(19-carboxynonadecanoylamino)ethoxy]ethoxy]acetyl]-[Arg17,Pro21,Pro27]-h-amylin (peptide)", "peptide": "K([AEEA-C20 diacid])CNTATCATQRLANFLRHSSPNFGAIPSSTNVGSNTY-NH2", "modifications": "disulfide 2-7; N-terminus assumed", "SMILES": "CC[C@H](C)[C@H](NC(=O)[C@H](C)NC(=O)CNC(=O)[C@H](Cc1ccccc1)NC(=O)[C@H](CC(N)=O)NC(=O)[C@@H]1CCCN1C(=O)[C@H](CO)NC(=O)[C@H](CO)NC(=O)[C@H](Cc1c[nH]cn1)NC(=O)[C@H](CCCNC(=N)N)NC(=O)[C@H](CC(C)C)NC(=O)[C@H](Cc1ccccc1)NC(=O)[C@H](CC(N)=O)NC(=O)[C@H](C)NC(=O)[C@H](CC(C)C)NC(=O)[C@H](CCCNC(=N)N)NC(=O)[C@H](CCC(N)=O)NC(=O)[C@@H](NC(=O)[C@H](C)NC(=O)[C@@H]1CSSC[C@H](NC(=O)[C@@H](N)CCCCNC(=O)COCCOCCNC(=O)CCCCCCCCCCCCCCCCCCC(=O)O)C(=O)N[C@@H](CC(N)=O)C(=O)N[C@@H]([C@@H](C)O)C(=O)N[C@@H](C)C(=O)N[C@@H]([C@@H](C)O)C(=O)N1)[C@@H](C)O)C(=O)N1CCC[C@H]1C(=O)N[C@@H](CO)C(=O)N[C@@H](CO)C(=O)N[C@H](C(=O)N[C@@H](CC(N)=O)C(=O)N[C@H](C(=O)NCC(=O)N[C@@H](CO)C(=O)N[C@@H](CC(N)=O)C(=O)N[C@H](C(=O)N[C@@H](Cc1ccc(O)cc1)C(N)=O)[C@@H](C)O)C(C)C)[C@@H](C)O", "notes": "also called compound 43"}}, "note": "Numbered stars: 1 amine (or outer) side, 2 acyl side, 3 side chain; on linkers, the order of the positions; unused ones are H or OH. Bridge positions count the residues as written; N and C are the ends. Side chains are listed from the residue outwards. Ends that are not written are not given here. * marks the point of attachment. C20 diacid = O=C(O)CCCCCCCCCCCCCCCCCCC(=O)*; γGlu = O=C(O)[C@H](CCC(=O)[*:2])N[*:1]; AEEA = NCCOCCOCC(=O)O", "data": [{"molecular_target": "T1, human amylin receptor (human, UniProt P30988 25-474; O60896 24-148, limits assumed)", "T1 construct": "whole, on cells; Used as cell membranes prepared from the Amylin 3(a)/CRE-luc BHK cells (Assay V); also called hAmylin-R; hAmylinR", "T1 sequence (looked up) 1": "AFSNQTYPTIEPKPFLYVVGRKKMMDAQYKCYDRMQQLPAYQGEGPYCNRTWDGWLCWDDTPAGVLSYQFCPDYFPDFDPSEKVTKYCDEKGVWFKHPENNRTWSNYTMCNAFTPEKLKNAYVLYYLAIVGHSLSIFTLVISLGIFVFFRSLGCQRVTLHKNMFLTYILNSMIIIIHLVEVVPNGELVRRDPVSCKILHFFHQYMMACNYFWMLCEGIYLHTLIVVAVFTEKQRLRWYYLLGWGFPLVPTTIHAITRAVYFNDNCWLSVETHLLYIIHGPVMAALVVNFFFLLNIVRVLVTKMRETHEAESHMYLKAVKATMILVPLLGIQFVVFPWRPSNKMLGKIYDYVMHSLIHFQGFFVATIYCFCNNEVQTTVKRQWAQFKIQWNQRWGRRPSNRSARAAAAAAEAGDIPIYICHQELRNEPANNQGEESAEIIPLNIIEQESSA", "T1 sequence (looked up) 2": "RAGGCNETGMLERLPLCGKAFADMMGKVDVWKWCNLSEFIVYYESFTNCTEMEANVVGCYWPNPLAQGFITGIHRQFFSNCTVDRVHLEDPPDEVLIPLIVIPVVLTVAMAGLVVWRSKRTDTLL", "test": "SPA competition vs 125I-rat amylin, membranes of amylin 3(a) receptor BHK cells (Assay V)", "how_it_was_run": "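Cell membranes were prepared by homogenisation in Na-HEPES/EDTA buffer, pH 7.4, and stored at −80° C. They were then coupled to SPA beads at 35 ng/μL final and exposed to compounds in assay buffer containing CaCl2, MgCl₂, OA and Tween20. After 120 min at 25° C, plates were counted and IC₅₀ derived.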", "units": {"IC50": "nM"}, "values": [{"binder": "B1", "IC50": 0.957}, {"binder": "B2", "IC50": 0.525}, {"binder": "B3", "IC50": 0.403}, {"binder": "B4", "IC50": 0.121}, {"binder": "B5", "IC50": 0.427}, {"binder": "B6", "IC50": 0.076}]}]}
